# From the nanobody polyreactivity screen of Harvey et al. (2022)
# Assay: yeast display, Sf9 membrane polyspecificity reagent, FACS + sequencing; frameworks hold sequencing errors
# Outline: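 Galactose induction of a Saccharomyces cerevisiae BJ5465 synthetic nanobody display library ran 36–48 hours. The cells were then stained for 1 hour at 4 °C with 10% biotinylated, detergent-solubilized Sf9 membrane reagent, pulled down on streptavidin microbeads and FACS-sorted into low and high (top ~1%) gates on expression and reagent-binding fluorescence. Labels for polyreactivity follow the gate of origin.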
row,Sequence,polyreactivity (PSR sort gate)
1,QVQLVESGGCLVQAGGSLRLSCAASGRTLGYYTMGWYRQAPGKERELVATITPGGSTSYADSVKGRFTISRDNAKNTVYLQMNSLKPEDTAVYYCARTRPYYLLYSSNFRYDYWGQGTQVTVSS,high polyreactivity
2,QVQLVESGGGLVQAGGSLRLSCAASGYTFIDYAMGWYRQAPGKETELVAAITRGGRTNYADSVKGRFTISRDNAKNTVYLQMNSLKPEDTAVYYCAAALRRRRADFDYWGQGTQVTVSS,high polyreactivity
3,KVQLVESGGGLVQAGGSLRLSCAASGSIFTHNAMGWYRQAPGKERELVAAISSGGSTNYADSVKGRFTISRDNAKNTVYLQMNSLKPEDTAVYYCAKSIDGWYWRRRRYDYWGQGTQVTVSS,low polyreactivity
4,QVQLVESGGGLVQAGGSLRLSCAASGTFAGNALGWYRQAPGKERELVASITTGVRTYYADSGKGRFTLSRDNAKNTVYLQMHCLKPEDTAVYYCAADRIRDLEFYYWGQGTQVTVSS,low polyreactivity
5,QVQLVESGGGLVQAGGSLRLSCAASGSTFFPYAMGWYRQAPGKERELVAGISSDGGTYYADSVKGRFTISRDNAKNTVYLQMNSLKPEDTAVYYCAALQADRDRYPEFDLMDYWGQGTQVTVSS,low polyreactivity
6,QVQLVESGGGLVQAGGSLRLSCAASGSIFQQYAMGWYRQAPGKERELVAAISYSGGTTYYADSVKGRFTISRDNAKNTVYLQMNSLKPEDTAVYYCAAYYPSGSYDYYWGQGTQVTVSS,low polyreactivity
7,QVQLVESGGGLVQAGGSLRLSCAASGITFSRYAMGWYRQAPGTERELVAAITSSGGSTYYADSVKGRFTISRDNAKNTVYLQMNSLKPEDTAVYYCAATSYYTREQYYYWGQGTQVTVSS,high polyreactivity
8,QVQLVESGGGLVQAGGSLRLSCAASGSTLWDYAMGWYRQAPGKERELVAAITQDGGSTYYADSVKGRFTISRDNAKNTVYLQMNSLKPEDTAVYYCAAEYWYDGGGYWGQGTQVTVSS,low polyreactivity
9,QVQHVESGGGLVQAGGSLRLSCAASGSTFSQYAMGWYRQAPGKERELVAAITRGGRTYYADSVKGRFTISRDNAKNTVYLQMNSLKPEDTAVYYCAARGGYRLRYIPYVRYDYWGQGTQVTVSS,high polyreactivity
10,QVQLVESGGGLVQAGGSLRLSCAASGSTFQYYDMGWYRQAPGKERELVASITGSGDSTYYADSVKGRFTISRDNAKNTVYLQMNSLKPEDTAVYYCAAQNTWSGDYDYWGQGTQVTVSS,low polyreactivity
11,QVQLVESGGGLVQAGGSLRLSCAASGITFWYYAMGWYRQAPGKERELVAAISSSGGRTTYADSVKGRFTISRDNAKNTVYLQMNSLKPEDTAVYYCATTYGDRYVTAYDYWGQGTQVTVSS,high polyreactivity
12,QVQLVESVGGLVQAGGSLRLSCAASGSTFYRYAMGWYRQAPGKERELVAAISSDGTTYYADSVKGRFTISRDNAKNTVYLQLNSLKPEDTAVYYCAKRGYYRSRRYDYWGQGTLVTVSS,high polyreactivity
13,QVQLVESGGGLVHAGGSLRLSCAASRYTFVNYAMGWYSQAPGKERELVAAITSRGSSTYYADSVKGRFTLSRDNAKNTVYLQMNSLNPEDTAVYYCYVHVRNHDYWGEGTQVTVSS,high polyreactivity
14,QLQLLESGGGLDQPGGSLRLSSAASGRTFYRYVMGWYRQEPGKERELVAAIRSSGTTTYYADSVKGRFTISRDNAKNTVYIKMNCVIPEDTAVYYCARDSYRGYVYSLDYWGQGTQVTVSS,high polyreactivity
15,QVQLVETGGGLVQAGGSLRLSCAASGFTFEGYAMGWYRQAPGKERELVAAINGSGGSTYYADSVKGRFTISRDNAKNTVYLQMNSLKPEDTAVYYCAKTDAFYRGYGYWGQGTQVTVSS,low polyreactivity
16,QVQLVESGGGLVQAGGSLRLSCAASGFTLEFYAMGWYRQAPGKERELVARITTSGGSTRYADSVKGRFTISRDNAKNTVYLQMNSLKPEDTAVYYCPARGYGYRNVQTYGYWGQGTQVTVSS,high polyreactivity
17,QVQLVESGGCLVQAGGSLRLSSAASGSTFRQYAMGWYRQAPGKERELVAAITWRGDNTYYADSVKGRFTISRDNAKNSVYLQMNSLKPEDTAVYYCAARWSYRLYWGYGYWGQGTQVTVSS,low polyreactivity
18,QVQLVESGGGLVQAGGSLRLSSAASGNIFYGYAIGWYRQAPGKERELVARINWSGTRTYYADSVKGRFTISRDNAKNTVYLQMNSLKPEDTAVYYCAADRYRKYYRRYYYWGQGTQVTVSS,high polyreactivity
19,QVQLVESGGGLVHAGGSLRLSCAASGSTFGFYARGWYRQAPGKERELVAAITTGGSTNYADSVKGRFTISRVNAKNTVYLQMYSLKPEDSAVYYCHADVYWNPYYDYDYWGQGTLVTVSS,high polyreactivity
20,QVQLVESGGGLVQAGGSLRLSCAASGIIFGWYAMGWYRKAPGKERELVAAISSGGRTNYADSVKGRFTISRDNAKNTVYLQMNSLKPEDTAVYYCAAAYIRGSRRYDYWGQGTQVTVSS,high polyreactivity
21,QVQLVESGGGLVQAGGSLRLSCAASGRTFGVYAMGWYRQAPGKERELVATITSVDRTNYADSVKGRFTISRDNAKNTVYLQMNSLKPEDTAVYYCAAVGRWPRYYYWGQGTQVTVSS,high polyreactivity

row,Sequence,polyreactivity (PSR sort gate)
1,QVQLVESGGGLVQAGGSLRLSCAASGYIFALNAMGWYRQAPGKERELVASITGAGSTNYADSVKGRFTISRDNAKNTVYLQMNSLKPEDTAVYYCAKRTRRRGYYYWGQGTQVTVSS,high polyreactivity
2,QVQLVESGGRLVQAGGSLRLSCDASGRTFYTNAMGWYRQEPGKEMELVAAISGRGSTYYADSVTGRFTISRDNAKNTVYLQMNSLKPEDTAVYYCAALLPGRSSSDYWGQGTQVTVSS,high polyreactivity
3,QVQLVESGGGFVQAGGRLRLSCAASGRIFWMNAMGWYRQAPGKETEFVASITYGSDSTYYADSVKGRFTISRDNAKNTVYLQMNSLKPEDTAVYYCNREGWHYGPYGYWGQGTQVTVSS,low polyreactivity
4,QVHLVESGGGLVQAGGSLRLSCAASGSIFTQYAMGWYRQAPGKERELVARITGSGGRTYYADSVKGRFTISRDNAKNTVYLQMNSLKPEDTAVYYCNARLYTYGRHQGPDYNYWGQGTQVTVSS,high polyreactivity
5,QVHLVESGGGLVQAGGSLRLSCAASGRTIAAYAMGWYRQAPGKERELVAAISRSGGSTYYADSVKGRFTISRDNAKNTVYLQMNSLKPEDTAVYYCAAQRQYGKFDYWGQGTQVTVSS,high polyreactivity
6,QVQLVESGGGLVQAGGSLRLSCAASGIIFSPYAMGWYRQAPGKERELVAAITNNGGGTYYADSVKGRFTISRDNAKNTVYLQMNSLKPEDTAVYYCAAEGFLEYPYYIWYDYWGQGTQVTVSS,high polyreactivity
7,QVQLVESGGGLVQAGGSLRLSCAASGRIFVGYAMGWFRQAPGKERELVAAINRSGSSTYYADSVNGRFTISRDNAKNTVYLQMNSLKPEDTAVYYCAARYYPRVRYATYYGSYYWGQGTQVTVSS,high polyreactivity
8,QVQLVESGGGLVHAGGSLRLSCAASGRTFRNNAMVWYRQAPGKEREWVAAITSGGSTNYADSVKGRFTISRDNAKNPVYLQMISLKPEDTGVYYCAKDFWYVTGGWSSGMDYWGQGTQVTVSS,low polyreactivity
9,QVQLVESGGGLVQAGGSLRLSCAASGGTFYRYAMGWYRQAPGKERELVAAITSGSSTYYADSVKGRFTISRDNAKNTVYLQMNSLKPEDTAVYYCAAARYSRLSRTRPGKYGYWGQGTQVTVSS,low polyreactivity
10,QVQLVESGGRLVQAGGSLRLSCAASGFIFPRYTRGWYRQAPGKESELVAGITLRGGSTYYADSVKGRFTISRDNAKNTVYLQMNSLKPEDTAVYYCARGISRGRSFGIGYDYWGQGTQVTVSS,low polyreactivity
11,QVQLVESGGGVVQAGGSLRLSCAASGRIFRYYAMGWYRQAPGKERELVAGITTGGGSTYYADSVKGRFTISRDNAKNTVYLQMNSLKPEDTAVYYCAARYYTTFYWGQGTQVTVSS,high polyreactivity
12,QVQLVESGGGLVQAGGSLRLSCAASGFTFDSYAMGWYRQAPGKERELVAAITWDGGSTYYADSVKGRYTISRDNAKNTVYLQMNSLKPEETAVYYCAADFGTISIDVYSWMDYWGQGTQVTVSS,low polyreactivity
13,QVQLVESGGRLVQAGGSLRLSCAASGRIFWGYALGRYRQAHGKVSELVAAITRSGGRTYYADSVKGRFTISRDNAKNTVYLQMTSLKREDTAVYYCNAVNSLQPYKFDYWVQGTQVTVSS,high polyreactivity
14,QVQLVESGGGLVQAGGSLRLSCAASGRIFNRNAMGWYRQAPGKERELVAAITGSGGITYYADSVKGRFTISRDNAKNTVYLQMNSLKPEDTAVYYCAARAKFLSLPTYDYWGQGTQVTVSS,high polyreactivity
15,QVQLVESGGGLVQAGGSLRLSCAASGRTFNRYAMGWYRQAPGKERELVAAINWSGGSTYYADSVKARFTISRDIAKTTVYLPMNSLKPEDTAVYYCAADVWGWGLRPYDYWGQGTQVTVSS,low polyreactivity
16,QVQLVESGRGLVQAGGSLRLSCAASGFTFSLNAMGWYRQAPGKERELVAGISIGGSTNYADSVKGRFTISRDNAKNTVYLQMNSLKPEDTAVYYCNAYYWSATWYFAAWDYYYWGQGTQVTVSS,high polyreactivity
17,QVQLVESGGGLVQAGGSLRLSCAASGIIFGTNAMGWSRQAPGKERELVAGITSSGDSTYYADSVKGRFTISRDNAKNTVYLQMNSLKPEDTAVYYCARDIRTREFDSWGQGTQVTVSS,low polyreactivity
18,QVQLVESGGGLVQAGGSLRLSCAASGGTFLINAMGWYRQAPGKERELVATITSGGTTYYADSVKGRFTISRDNAKNTVYLQMNSLKPEDTAVYYCATRGKGRYGYDSWGQGTQVTVSS,low polyreactivity
19,QVQLVESGGGLVQPGGSLRLSCAASGSTLTLYDMGWYRQAPGKEWEFVAAIRSHGVSTYYADSEKGRFTISRDNAKNTVYLQMNSLQPEDTAVYYCSSVYIPGGRYTYFPYKRYDYWGQGTKVTVSS,high polyreactivity
20,QVQLVESGGGLVQAGGSLRLSCAASGSICISYAMGWYRPAPGKERELVAAINYSGGSTYYADSVKGRFTISRDNAKNTVYLQMNSLKPDDTAVYYCAKRSTYRYYGYKLRDYWGQGTQVTVSS,low polyreactivity
